Reference: US20120302506A1

Biological target: Human uPA (Chemicon) (human) (UniProt P00749)
Assay: cell-based or functional assay

Sequence of Glutathione S-transferase (GST)-tagged maspin (GST-maspin), bacterial recombinant (P08515 whole entry): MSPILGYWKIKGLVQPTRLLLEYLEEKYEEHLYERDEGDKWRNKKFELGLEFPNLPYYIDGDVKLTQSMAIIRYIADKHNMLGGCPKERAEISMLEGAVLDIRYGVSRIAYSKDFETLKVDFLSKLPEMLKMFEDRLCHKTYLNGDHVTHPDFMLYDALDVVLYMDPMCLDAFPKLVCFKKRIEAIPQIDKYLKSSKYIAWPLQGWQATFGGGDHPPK

- maspin-mediated adhesion of uPA-stripped MCF0A cells resupplied with exogenous uPA (800 nM) (% of GST control): 154
Substance: Glutathione S-transferase (GST)-tagged maspin (GST-maspin), bacterial recombinant (from UniProt P08515 1-218)
